The source of these data is paper PMC6642083, “Structural basis of tubulin detyrosination by VASH2/SVBP heterodimer” (Nature Communications, 2019).

This experiment concerns the target T1, VASH2_(1–355)(C158A)/SVBP_(1–66) (Mus musculus, UniProt Q8C5G2 1-355; Q99LQ4 1-66, C158A).
T1 construct: SVBP, Mus musculus, residues 1-66; also called VASH2(C158A)/SVBP; source: Sf9, co-expressed (baculovirus), purified (Ni-NTA, heparin, SEC); not shown: His-tag, N-terminal, cleaved
Put plainly: crystal structure; tail peptide (1 mM) co-crystallized with VASH2 1–355(C158A)/SVBP 1–66 (5 mg/ml), 2.5 Å; 0.1 M HEPES pH 7.0, 1 M (NH4)2SO4, 1.105 M KCl, 18 °C. As to conditions: both partners purified.

T1 sequence (Q8C5G2 whole entry C158A, chain 1 of 2, the tested form may be a part): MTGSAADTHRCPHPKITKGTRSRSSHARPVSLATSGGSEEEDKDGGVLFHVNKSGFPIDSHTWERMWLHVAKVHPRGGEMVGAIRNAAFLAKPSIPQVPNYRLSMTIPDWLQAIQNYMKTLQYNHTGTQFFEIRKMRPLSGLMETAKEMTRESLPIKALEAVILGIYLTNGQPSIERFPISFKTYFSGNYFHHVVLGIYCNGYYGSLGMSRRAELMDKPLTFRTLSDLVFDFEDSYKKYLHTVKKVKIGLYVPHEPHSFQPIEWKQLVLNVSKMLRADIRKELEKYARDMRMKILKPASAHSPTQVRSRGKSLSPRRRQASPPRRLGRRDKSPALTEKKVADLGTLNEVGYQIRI
T1 sequence (Q99LQ4 whole entry, chain 2 of 2, the tested form may be a part): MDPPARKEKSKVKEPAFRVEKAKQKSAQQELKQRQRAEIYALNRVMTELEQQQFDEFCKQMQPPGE

B1: α-tubulin C-terminal tail peptide (VDSVEGEGEEEGEEY) (peptide)
peptide: VDSVEGEGEEEGEEY
notes: C-terminal tail of α-tubulin; Only the last five residues (EGEEY) were built in the crystal structure; also called tubulin tail; full-length tail; source: synthetic peptide (Biosynthesis)
Regarding B1, the binding result is listed as “binds”.
